Experimental data: patent publication US7449563B2, “Methods and compositions for destabilizing microtubules” (Academia Sinica, priority 2003, dated 2008)
No end group written: not given here.

B1: GST-PN2: GST fusion polypeptide corresponding to amino acid residues 132-422 of CPAP (protein, UniProt Q9HC77 132-422, looked up, fragment)
chain: EFKEGAYKDPLFKKLEQLKEVQQKKQEQLKRQQLEQLQRLMEEQEKLLTMVSGQCTLPGLSLLPDDQSQKHRSPGNTTTGERATCCFPSYVYPDPTQEETYPSNILSHEQSNFCRTAHGDFVLTSKRASPNLFSEAQYQEAPVEKNNLKEENRNHPTGESILCWEKVTEQIQEANDKNLQKHDDSSEVANIEERPIKAAIGERKQTFEDYLEEQIQLEEQELKQKQLKEAEGPLPIKAKPKQPFLKRGEGLARFTNAKSKFQKGKESKLVTNQSTSEDQPLFKMDRQQLQR
modifications: GST tag
notes: GST fusion polypeptide corresponding to amino acid residues 132-422 of CPAP
B2: PN2-3: PN2-3 polypeptide with wild-type CPAP sequence, residues 311-422 of SEQ ID NO:1, expressed using pET vectors (protein, listed as Homo sapiens)
chain: QKHDDSSEVANIEERPIKAAIGERKQTFEDYLEEQIQLEEQELKQKQLKEAEGPLPIKAKPKQPFLKRGEGLARFTNAKSKFQKGKESKLVTNQSTSEDQPLFKMDRQQLQR
B3: L353P: PN2-3 polypeptide with L353 mutated to proline (protein, listed as Homo sapiens)
chain: MFLMPTSSELNSGQNFLTQWMTNPSRAGVILNRGFPILEADKEKRAAVDISTSFPIKGTHFSDSFSFINEEDSLLEEQKLESNNPYKPQSDKSETHTAFPCIKKGPQVAACHSAPGHQEENKNDFIPDRASEFKEGAYKDPLFKKLEQLKEVQQKKQEQLKRQQLEQLQRLMEEQEKLLTMVSGQCTLPGLSLLPDDQSQKHRSPGNTTTGERATCCFPSYVYPDPTQEETYPSNILSHEQSNFCRTAHGDFVLTSKRASPNLFSEAQYQEAPVEKNNLKEENRNHPTGESILCWEKVTEQIQEANDKNLQKHDDSSEVANIEERPIKAAIGERKQTFEDYLEEQIQLEEQEPKQKQLKEAEGPLPIKAKPKQPFLKRGEGLARFTNAKSKFQKGKESKLVTNQSTSEDQPLFKMDRQQLQRKTALKNKELCADNPILKKDSKARTKSGSVTLSQKPKMLKCSNRKSLSPSGLKIQTGKKCDGQFRDQIKFENKVTSNNKENVTECPKPCDTGCTGWNKTQGKDRLPLSTGPASRLAAKSPIRETMKESESSLDVSLQKKLETWEREKEKENLELDEFLFLEQAADEISFSSNSSFVLKILERDQQICKGHRMSSTPVKAVPQKTNPADPISHCNRSEDLDHTAREKESECEVAPKQLHSLSSADELREQPCKIRKAVQKSTSENQTEWNARDDEGVPNSDSSTDSEEQLDVTIKPSTEDRERGISSREDSPQVCDDKGPFKDTRTQEDKRRDVDLDLSDKDYSSDESIMESIKHKVSEPSRSSSLSLSKMDFDDERTWTDLEENLCNHDVVLGNESTYGTPQTCYPNNEIGILDKTIKRKIAPVKRGEDLSKSRRSRSPPTSELMMKFFPSLKPKPKSDSHLGNELKLNISQDQPPGDNARSQVLREKIIELETEIEKFKAENASLAKLRIERESALEKLRKEIADFEQQKAKELARIEEFKKEEMRKLQKERKVFEKYTTAARTFPDKKEREEIQTLKQQIADLREDLKRKETKWSSTHSRLRSQIQMLVRENTDLREEIKVMERFRLDAWKRAEAIESSLEVEKKDKLANTSVRFQNSQISSGTQVEKYKKNYLPMQGNPPRRSKSAPPRDLGNLDKGQAASPREPLEPLNFPDPEYKEEEEDQDIQGEISHPDGKVEKVYKNGCRVILFPNGTRKEVSADGKTITVTFFNGDVKQVMPDQRVIYYYAAAQTTHTTYPEGLEVLHFSSGQIEKHYPDGRKEITFPDQTVKNLFPDGQEESIFPDGTIVRVQRDGNKLIEFNNGQRELHTAQFKRREYPDGTVKTVYANGHQETKYRSGRIRVKDKEGNVSMDTEL

System: HeLa cells
Experiment: Cell-based assay for CPAP activity: microtubule reassembly in cold-treated transfected HeLa cells
Parameters: species or system human
Settings: transiently transfected HeLa cells
Method: Cell Culture and Transfection
HeLa cells were maintained in DMEM supplemented with 10% fetal bovine serum. cDNA clones encoding different portions of CPAP were subcloned, in an appropriate reading frame, into the CMV promoter-driven EGFP-C1 expression vector (Clontech, Palo Alto, Calif.). Transient transfections were performed using Lipofectamine 2000 (Invitrogen, Carlsbad, Calif.) according to the manufacturer's instructions.
Cold Treatment, Immunofluorescence and Confocal Microscopy
HeLa cells were grown on coverslips for at least 24 hr. Cold treatment was performed by incubating the cells at 4° C. for 1 hr, then replacing the cold medium with medium warmed to 30° C. and incubating the cells for 2 min at 30° C. The cells were then fixed with 1% formaldehyde for 30 min at room temperature.
The fixed cells were incubated in the presence of anti-α-tubulin monoclonal antibodies (N356, Amersham, Piscataway, N.J.) and anti-γ-tubulin polyclonal antibodies (Sigma, Saint Louis, Mo.). Bound anti-α-tubulin monoclonal antibodies (N356) were detected with Alexa 568, a Texas Red-conjugated goat anti-mouse IgG, or Alexa 647, a far-red fluorophore-conjugated goat anti-mouse IgG. Bound anti-γ-tubulin polyclonal antibodies were detected with Alexa 568 (Molecular Probes Inc.). The resulting […] signals were detected using a laser scanning confocal system (MRC 1000, Bio-Rad Laboratories, Hercules, Calif.).
The effect of various polypeptides derived from CPAP was determined by evaluating the amounts of mitotic spindle formation in the transfected cells. Decreased mitotic spindle formation indicated the presence of an activity that inhibited microtubule formation or destabilized microtubules.

Row | Molecule | Inhibition of microtubule reassembly in cold-treated mitotic cells (in words)
1 | GFP-PN2-1: GFP-tagged CPAP residues 132-190 (EFKEGAYKDPLFKKLEQLKEVQQKKQEQLKRQQLEQLQRLMEEQEKLLTMVSGQCTLPG; also: GFP tag, terminus not given here; UniProt Q9HC77 132-190, looked up, fragment) | no significant inhibition

Molecular target: T1, microtubule nucleation from purified centrosomes (bovine brain tubulin) (Bos taurus, UniProt P81947+Q6B856)
T1 construct: containing 125 μg bovine brain tubulin (Cytoskeleton, Denver, Colo.); purchased Cytoskeleton, Denver, Colo; host or cells: bovine brain (tissue-purified)
Experiment: In vitro centrosome-dependent microtubule nucleation assay
Format: biochemical
Settings: 20 μM or 40 μM peptide
Method: In vitro Centrosome-Dependant Microtubule Nucleation Assay
Isolation of centrosomes and microtubule nucleation tests were performed as described (Hung et al., 2000). To investigate the effect of different GST-truncated CPAP fusion proteins on microtubule nucleation, purified centrosomes (4 μl per reaction) were pre-incubated with the various truncated GST-CPAP fusion proteins or FPLC purified synthetic peptides for 10 min at 4° C. The reaction mixtures were then incubated in 65 μl RG1 buffer (80 mM PIPES, pH 6.8, 1 mM EGTA, 1 mM MgCl2, and 1 mM GTP) containing 125 μg bovine brain tubulin (Cytoskeleton, Denver, Colo.) for 4 min at 37° C.
Microtubules present in the reaction mixtures were fixed in 200 μl 1% glutaraldehyde in RG1 buffer, sedimented onto acid-treated coverslips, and subjected to immunofluoresence analysis using anti-α-tubulin monoclonal antibodies N356 (Amersham, Piscataway, N.J.) or FITC-conjugated anti-α-tubulin monoclonal antibodies (DM1A-FITC; Sigma, Saint Louis, Mo.). Truncated GST-CPAP proteins were detected using an anti-GST polyclonal antibody (Molecular Probes, Cincinnati, Ohio). The extent of microtubule assembly in each reaction was determined microscopically by comparing the extent of microtubule formation on each coverslip. Decreased microtubule formation in reactions comprising polypeptides derived from CPAP indicated the ability of such polypeptides to inhibit centrosome-dependent microtubule assembly.

T1 sequence (P81947 whole entry): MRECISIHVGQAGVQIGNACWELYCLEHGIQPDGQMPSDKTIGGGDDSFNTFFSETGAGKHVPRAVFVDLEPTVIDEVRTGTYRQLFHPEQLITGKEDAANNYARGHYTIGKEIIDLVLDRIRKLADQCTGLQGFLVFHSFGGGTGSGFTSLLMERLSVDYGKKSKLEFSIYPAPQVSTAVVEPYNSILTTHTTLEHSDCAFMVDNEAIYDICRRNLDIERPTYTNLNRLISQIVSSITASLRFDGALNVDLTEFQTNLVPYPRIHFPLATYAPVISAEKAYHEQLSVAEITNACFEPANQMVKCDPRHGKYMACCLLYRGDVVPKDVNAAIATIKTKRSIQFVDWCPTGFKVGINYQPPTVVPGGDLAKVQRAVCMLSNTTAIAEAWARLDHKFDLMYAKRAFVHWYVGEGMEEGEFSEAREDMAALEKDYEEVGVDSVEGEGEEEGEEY
T1 sequence (Q6B856 whole entry): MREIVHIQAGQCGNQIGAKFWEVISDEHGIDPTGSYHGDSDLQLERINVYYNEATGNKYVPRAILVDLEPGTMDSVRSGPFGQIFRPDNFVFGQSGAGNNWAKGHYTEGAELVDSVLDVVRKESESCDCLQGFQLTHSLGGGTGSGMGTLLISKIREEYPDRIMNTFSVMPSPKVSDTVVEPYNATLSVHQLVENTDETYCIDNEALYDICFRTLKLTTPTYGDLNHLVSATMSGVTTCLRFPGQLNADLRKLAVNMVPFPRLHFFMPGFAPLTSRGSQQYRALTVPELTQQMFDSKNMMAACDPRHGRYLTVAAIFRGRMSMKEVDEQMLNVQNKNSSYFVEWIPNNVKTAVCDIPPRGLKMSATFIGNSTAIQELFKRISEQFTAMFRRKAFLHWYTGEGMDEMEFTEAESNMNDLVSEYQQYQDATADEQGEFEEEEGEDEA

Row | Molecule | Effect of synthetic peptide on centrosome-dependent microtubule nucleation (in words)
2 | peptide C1: synthetic peptide, amino acid residues 363-392 of CPAP (SEQ ID NO:1) (GPLPIKAKPKQPFLKRGEGLARFTNAKSKF; listed as Homo sapiens) | No effect
3 | peptide C2: synthetic peptide, amino acid residues 393-423 of CPAP (SEQ ID NO:1) (QKGKESKLVTNQSTSEDQPLFKMDRQQLQRK; listed as Homo sapiens) | No effect
4 | peptide H2: synthetic peptide, amino acid residues 327-362 of CPAP (SEQ ID NO:1) (IKAAIGERKQTFEDYLEEQIQLEEQELKQKQLKEAE; listed as Homo sapiens) | No effect
5 | peptide N: synthetic peptide, amino acid residues 310-329 of CPAP (SEQ ID NO:1) (LQKHDDSSEVANIEERPIKA; listed as Homo sapiens) | No effect

Same assay, conditions: in vitro, purified centrosomes

Row | Molecule | Inhibition of microtubule nucleation/assembly from purified centrosomes (in words)
6 | GST-PN2-3C: GST fusion with PN2-3C, amino acid residues 369-422 of CPAP (non-helical motif) (AKPKQPFLKRGEGLARFTNAKSKFQKGKESKLVTNQSTSEDQPLFKMDRQQLQR; also: GST tag, terminus not given here; UniProt Q9HC77 369-422, looked up, fragment) | less inhibition
7 | B1 | inhibited
8 | B2 | showed the ability to inhibit microtubule assembly
9 | B3 | showed the ability to inhibit microtubule assembly
